Test results taken from patent US20210145976A1 (ARO BIOTHERAPEUTICS, published 2021).
Positions count from the first letter of the chain named.

B1: SEQ ID NO 44 (designed binder)
chain: MLPAPKNLVVSRVTEDSARLSWTAPDAAFDSFYIEYYESLPDGEAIVLTVPGSERSYDLTGLKPGTEYAVYIYGVKGGYYSRPLSAIFTT
notes: FN3 domain
B2: SEQ ID NO 49 (designed binder)
chain: MLPAPKNLVVSRVTEDSARLSWTAPDAAFDSFGISYLEWWEDGEAIVLTVPGSERSYDLTGLKPGTEYWVSIAGVKGGKRSYPLSAIFTT
notes: FN3 domain
B3: SEQ ID NO 51 (designed binder)
chain: B2 chain with G33F, S35K, L37I, E41A, W69L, S71E, A73Y, R80W, Y82W
notes: FN3 domain
B4: SEQ ID NO 52 (designed binder)
chain: B2 chain with G33K, L37Q, S71N, A73S, K79V, R80Q
notes: FN3 domain
B5: SEQ ID NO 58 (designed binder)
chain: MLPAPKNLVVSRVTEDSARLSWTAPDAAFDSFTIWYAEADGWGEAIVLTVPGSERSYDLTGLKPGTEYFVDIYGVKGGYLSVPLSAIFTT
notes: FN3 domain
B6: SEQ ID NO 59 (designed binder)
chain: B5 chain with A39W, D40E, G41D, W42E, F69R, D71E, L80P, V82K
notes: FN3 domain
B7: SEQ ID NO 50 (designed binder)
chain: MLPAPKNLVVSRVTEDSARLSWTAPDAAFDSFVIEYREGAWYGEAIVLTVPGSERSYDLTGLKPGTEYFVDITGVKGGWWSDPLSAIFTT
notes: FN3 domain
B8: SEQ ID NO 61 (designed binder)
chain: MLPAPKNLVVSRVTEDSARLSWRVESRTFDSFLIQYQESEKVGEAIVLTVPGSERSYDLTGLKPGTEYTVSIYGVVWDTRDNPISNPLSAIFTT
notes: FN3 domain
B9: SEQ ID NO 36 (designed binder)
chain: MLPAPKNLVVSRVTEDSARLSWTAPDAAFDSFTITYIEWWENGEAIALSVPGSERSYDLTGLKPGTEYQVGIAGVKGGYKSYPLWALFTT
notes: FN3 domain
B10: SEQ ID NO 62 (designed binder)
chain: MLPAPKNLVVSRVTEDSARLSWTAPDAAFDSFPILYLELNHHGEEIVLTVPGSERSYDLTGLKPGTEYWVYIFGVKGGMYSAPLSAIFTTGG
modifications: VC-MMAF conjugate (site not given)
B11: SEQ ID NO 115 (designed binder)
chain: MLPAPKNLVVSRVTEDSARLSWTAPDAAFDSFFIGYLEPQPPGEAIVLTVPGSERSYDLTGLKPGTEYNVTIQGVKGGFPSMPLSAIFTTT
notes: FN3 domain
B12: SEQ ID NO 112 (designed binder)
chain: MLPAPKNLVVSRVTEDSARLSWTAPDAAFDSFFIAYFEFANPGEAIVLTVPGSERSYDLTGLKPGTEYKVVIQGVKGGTPSEPLSAISTT
notes: FN3 domain
B13: SEQ ID NO 222 (designed binder)
chain: B1 chain with Y37F, S39W, L40T, P41G, D42S, A69N, Y71A, Y79A, Y80V, R82Y
notes: FN3 domain
B14: SEQ ID NO 95 (designed binder)
chain: B2 chain with G33R, L37Y, W40Y, E41D, D42L, S71D, K79Y, R80Y
notes: FN3 domain
B15: SEQ ID NO 217 (designed binder)
chain: B7 chain with V33I, R37W, G39W, A40Y, W41F, Y42A, F69T, D71W, W79T, D82E
notes: FN3 domain
B16: SEQ ID NO 252 (designed binder)
chain: MLPAPKNLVVSRVTEDSARLSWTAPDAAFDSFDIGYTEYGGYGEAIVLTVPGSERSYDLTGLKPGTEYWVLIQGVKGGGSSVPLSAIFTT
notes: FN3 domain
B17: SEQ ID NO 194 (designed binder)
chain: MLPAPKNLVVSRVTEDSARLSWTAPDAAFDSFEIDYDELAIYGEAIVLTVPGSERSYDLTGLKPGTEYRVFIYGVKGGWTSWPLSTIFTT
notes: FN3 domain
B18: SEQ ID NO 190 (designed binder)
chain: MLPAPKNLVVSRVTEDSARLSWTAPDAAFDSFFIGYPEYPATGEAITLFVPGSERSYDLTGLKPGTEYNVVIQGVKGGRPSNPLVVAFTT
notes: FN3 domain
B19: SEQ ID NO 104 (designed binder)
chain: B1 chain with R12H, Y33D, S39L, L40V, P41G, D42S, A69Y, Y71A, Y80L
notes: FN3 domain
B20: SEQ ID NO 259 (designed binder)
chain: MLPAPKNLVVSRVTEDSARLSWTAPDAAFDSFTIEYFEFVDAGEAIVLTVPGSERSYDLTGLKPGTEYWVEIWGVKGGSWSKPLSAIFTT
notes: FN3 domain
B21: SEQ ID NO 134 (designed binder)
chain: B1 chain with Y33W, E35D, S39R, L40K, P41Y, D42V, A69E, Y71T, Y79W, R82D
notes: FN3 domain
B22: SEQ ID NO 92 (designed binder)
chain: MLPAPKNLVVSRVTEDSARLSWTAPDAAFDSFLIRYWEWYVLGEAIVLTVPGSERSYDLTGLKPGTEYYVEISGVKGGWQSWPLSAIFTT
notes: FN3 domain
B23: SEQ ID NO 302 (designed binder)
chain: B16 chain with G35Y, T37P, G40Y, G41D, Y42R, W69T, L71Y, Q73D, S80G, V82G
notes: FN3 domain
B24: SEQ ID NO 235 (designed binder)
chain: MLPAPKNLVVSRVTEDSARLSWTAPDAAFDSFSINYREWWSDGEAIYLPVPGSERSYDLTGLKPGTEYAVYIQGVKGGSRSFPLHAWFTT
notes: FN3 domain
B25: SEQ ID NO 238 (designed binder)
chain: MLPAPKNLVVSRVTEDSARLSWTAPDAAFDSFKIFYQEFGGEAIVLTVPGSERSYDLTGLKPGTEYWVDIYGVKGGYTSSPLSAIFTT
notes: FN3 domain
B26: SEQ ID NO 226 (designed binder)
chain: MLPAPKNLVVSRVTEDSARLSWTAPDAAFDSFHIIYEEVLTEGEAIYLRVPGSERSYDLTGLKPGTEYGVTIKGVKGGAYSIPLIATFTT
notes: FN3 domain

biological target: T1, recombinant biotinylated CD71 extracellular domain (Sino Biologics) with an N-terminal 6His tag (human, UniProt P02786 89-760, biotinylated (sites not given)); test: screening ELISA, ratio
T1 construct: extracellular domain; also called hCD71; huCD71
T1 sequence (P02786 other isoform, or with tags, fused parts or gaps): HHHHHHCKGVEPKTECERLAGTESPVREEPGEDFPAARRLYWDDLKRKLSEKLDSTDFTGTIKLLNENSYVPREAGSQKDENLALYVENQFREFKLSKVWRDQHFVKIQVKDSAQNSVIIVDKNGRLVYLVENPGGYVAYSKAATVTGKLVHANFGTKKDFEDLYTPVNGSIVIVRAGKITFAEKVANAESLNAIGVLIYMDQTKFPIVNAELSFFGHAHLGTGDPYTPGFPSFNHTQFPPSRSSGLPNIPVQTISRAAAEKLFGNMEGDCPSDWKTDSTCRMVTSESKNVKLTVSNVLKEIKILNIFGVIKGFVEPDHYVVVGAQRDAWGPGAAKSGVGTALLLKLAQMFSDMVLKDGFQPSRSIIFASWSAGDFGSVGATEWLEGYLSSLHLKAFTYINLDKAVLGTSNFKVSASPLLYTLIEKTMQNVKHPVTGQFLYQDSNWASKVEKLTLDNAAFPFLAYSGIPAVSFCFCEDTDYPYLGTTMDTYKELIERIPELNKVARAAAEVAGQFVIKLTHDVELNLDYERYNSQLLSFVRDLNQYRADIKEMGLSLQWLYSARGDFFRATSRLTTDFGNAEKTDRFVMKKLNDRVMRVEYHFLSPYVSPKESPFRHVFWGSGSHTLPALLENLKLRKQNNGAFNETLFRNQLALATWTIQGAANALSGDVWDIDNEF
Procedure: (§1) To screen for FN3 domains that specifically bind CD71, streptavidin-coated Maxisorp plates (Nunc catalog 436110) were blocked for 1 hour in Starting Block T20 (Pierce) and then coated with biotinylated CD71 (using same antigen as in panning) or negative controls (an unrelated Fc-fused recombinant protein and human serum albumin) for 1 hour. Plates were rinsed with TBST and diluted lysate was applied to plates for 1 hour. Following additional rinses, wells were treated with HRP-conjugated anti-V5 tag antibody (Abcam, ab1325), for 1 hour and then assayed with POD (Roche, 11582950001).

Binder | huCD71/Fc
B1 | 44.8
B2 | 948
B3 | 2290
B4 | 5750
B5 | 62.9
B6 | 608
B7 | 4490
B8 | 461
B9 | 535

biological target: T2, CD71 on SK-BR-3 cells (human, UniProt P02786 1-760); test: cell-based or functional assay
T2 sequence (P02786 whole entry): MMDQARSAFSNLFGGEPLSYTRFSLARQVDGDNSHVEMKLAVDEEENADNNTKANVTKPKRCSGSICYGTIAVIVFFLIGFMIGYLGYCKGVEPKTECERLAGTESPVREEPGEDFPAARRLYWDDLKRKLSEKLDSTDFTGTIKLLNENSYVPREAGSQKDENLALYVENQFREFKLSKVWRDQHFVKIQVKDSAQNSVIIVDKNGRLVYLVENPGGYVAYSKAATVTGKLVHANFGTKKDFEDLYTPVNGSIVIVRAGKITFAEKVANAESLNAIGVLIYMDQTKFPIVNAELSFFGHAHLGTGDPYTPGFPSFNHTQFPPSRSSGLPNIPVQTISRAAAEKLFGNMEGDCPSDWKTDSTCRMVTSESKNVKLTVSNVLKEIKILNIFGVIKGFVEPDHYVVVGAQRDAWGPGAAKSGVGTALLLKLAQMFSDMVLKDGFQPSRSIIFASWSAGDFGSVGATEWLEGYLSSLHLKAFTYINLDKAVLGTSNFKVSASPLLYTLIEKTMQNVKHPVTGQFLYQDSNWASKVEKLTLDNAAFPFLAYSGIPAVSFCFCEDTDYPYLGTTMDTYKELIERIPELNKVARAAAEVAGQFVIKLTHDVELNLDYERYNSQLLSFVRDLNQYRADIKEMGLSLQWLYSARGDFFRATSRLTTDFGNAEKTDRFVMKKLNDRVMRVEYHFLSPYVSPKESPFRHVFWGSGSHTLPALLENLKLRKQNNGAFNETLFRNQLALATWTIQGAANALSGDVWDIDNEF

Binder | IC50, SK-BR3 viability, MMAF conjugate, no competitor [nM] | IC50, SK-BR3 viability, MMAF conjugate, with 0.6 uM holo-human transferrin [nM]
B10 | > 0.005 | 0.6

biological target: T2, CD71 on SK-BR-3 cells; test: cell-based or functional assay; remark: another data set of the same source

Binder | IC50, SKBR-3 viability, MMAF conjugate, first unlabelled column (+/- human transferrin) [nM] | IC50, SKBR-3 viability, MMAF conjugate, second unlabelled column (+/- human transferrin) [nM]
B11 | 24.2 | 10.4
B12 | 27.3 | 4.55
B13 |  | 28.2
B14 | 28.3 | 12.7
B15 | 15.8 | 2.46
B16 | 24.6 | 7.74
B17 |  | 5.09
B18 | 36 | 12
B19 | 301 | 5.9
B20 | 27.5 | 
B21 | 165 | 8.54
B22 | 5.49 | 1.06
B23 | 164 | 27.8
B24 | 1.75 | 10.6
B25 |  | 7.23
B26 |  | 8.32

biological target: T1, recombinant biotinylated CD71 …; test: screening ELISA
Procedure: as §1

Binder | hCD71
B1 | 176000
B2 | 1.09e+07
B3 | 9.71e+06
B4 | 1.01e+07
B5 | 302000
B6 | 1.95e+06
B7 | 1.08e+07
B8 | 4.9e+06
B9 | 3.3e+06

biological target: T1, recombinant biotinylated CD71 …; test: screening ELISA; remark: another data set of the same source

Binder | hCD71
B11 | 2.92e+06
B12 | 3.65e+06
B13 | 1.74e+06
B14 | 4.21e+06
B15 | 3.9e+06
B16 | 2.98e+06
B17 | 562000
B18 | 3.21e+06
B19 | 3.58e+06
B20 | 2.44e+06
B21 | 3.08e+06
B22 | 3.85e+06
B23 | 2.67e+06
B24 | 3.92e+06
B25 | 2.88e+06
B26 | 4.33e+06

biological target: T1, recombinant biotinylated CD71 …; test: screening ELISA, ratio; remark: another data set of the same source

Binder | hCD71:HSA
B11 | 846
B12 | 514
B13 | 441
B14 | 2210
B15 | 332
B16 | 1190
B17 | 32
B18 | 656
B19 | 2100
B20 | 1160
B21 | 1580
B22 | 2960
B23 | 126
B24 | 2910
B25 | 679
B26 | 1520

biological target: T2, CD71 on SK-BR-3 cells; test: cell-based or functional assay; remark: another data set of the same source

Binder | IC50, SKBR-3 cell viability, MMAF conjugate [nM]
B1 | 2.5
B2 | 3
B3 | 4.9
B4 | 6.3
B5 | 7.7
B6 | 4
B7 | 3.1
B8 | 1.93
B9 | 7.1
